Laboratory results taken from US20120171195A1.

Experiments:
[1] = molecular target: HLA-B*1402 (human); experiment: Luminex beads; MAb 1/800; competitor IgG-free serum
[2] = molecular target: HLA-B*1801 (human); experiment: as above
[3] = molecular target: HLA-B*3701 (human); experiment: as above
[4] = molecular target: HLA-B*5101 (human); experiment: as above
[5] = molecular target: HLA-Cw*1701 (human); experiment: as above
[6] = molecular target: HLA-Cw*1802 (human) (UniProt P10321); experiment: as above
[7] = molecular target: HLA-B*4002 (human) (UniProt P01889); experiment: as above
[8] = molecular target: HLA-B*5801 (human); experiment: as above
[9] = molecular target: HLA-B*5201 (human); experiment: as above
[10] = molecular target: HLA-B*0801 (human) (UniProt P01889); experiment: as above
[11] = molecular target: HLA-B*2708 (human) (UniProt P01889); experiment: as above
[12] = molecular target: HLA-Cw*1402 (human) (UniProt P10321); experiment: as above
[13] = molecular target: HLA-Cw*0702 (human) (UniProt P10321); experiment: Luminex beads; MAb 1/1600; competitor rHLA-E
[14] = molecular target: HLA-B*5101 (human); experiment: Luminex beads; MAb 1/1600; competitor rHLA-E
[15] = molecular target: HLA-Cw*1802 (human) (UniProt P10321); experiment: Luminex beads; MAb 1/1600; competitor rHLA-E
[16] = molecular target: HLA-B*4002 (human) (UniProt P01889); experiment: Luminex beads; MAb 1/1600; competitor rHLA-E
[17] = molecular target: HLA-B*1513 (human); experiment: Luminex beads; MAb 1/1600; competitor rHLA-E
[18] = molecular target: HLA-Cw*1402 (human) (UniProt P10321); experiment: Luminex beads; MAb 1/1600; competitor rHLA-E
[19] = molecular target: HLA-Cw*1502 (human); experiment: Luminex beads; MAb 1/100; competitor rHLA-E
[20] = molecular target: HLA-Cw*0501 (human); experiment: Luminex beads; MAb 1/100; competitor rHLA-E
[21] = molecular target: HLA-Cw*0303 (human); experiment: Luminex beads; MAb 1/100; competitor rHLA-E
[22] = molecular target: HLA-Cw*0702 (human) (UniProt P10321); experiment: Luminex beads; MAb 1/100; competitor rHLA-E
[23] = molecular target: HLA-B*1401 (human) (UniProt P01889); experiment: Luminex beads; MAb 1/100; competitor rHLA-E
[24] = molecular target: HLA-B*3701 (human); experiment: Luminex beads; MAb 1/100; competitor rHLA-E
[25] = molecular target: HLA-Cw*0202 (human); experiment: Luminex beads; MAb 1/100; competitor rHLA-E
[26] = molecular target: HLA-B*4501 (human); experiment: Luminex beads; MAb 1/100; competitor rHLA-E
[27] = molecular target: HLA-Cw*0602 (human) (UniProt P10321); experiment: Luminex beads; MAb 1/100; competitor rHLA-E
[28] = molecular target: HLA-Cw*0304 (human); experiment: Luminex beads; MAb 1/100; competitor rHLA-E
[29] = molecular target: HLA-Cw*1701 (human); experiment: Luminex beads; MAb 1/100; competitor rHLA-E
[30] = molecular target: HLA-B*1513 (human); experiment: Luminex beads; MAb 1/100; competitor rHLA-E
[31] = molecular target: HLA-B*4403 (human); experiment: Luminex beads; MAb 1/100; competitor rHLA-E
[32] = molecular target: HLA-B*2708 (human) (UniProt P01889); experiment: Luminex beads; MAb 1/100; competitor rHLA-E
[33] = molecular target: HLA-Cw*1402 (human) (UniProt P10321); experiment: Luminex beads; MAb 1/100; competitor rHLA-E
[34] = molecular target: HLA-B*4101 (human) (UniProt P01889); experiment: Luminex beads; MAb 1/100; competitor IgG-free serum
[35] = molecular target: HLA-Cw*0501 (human); experiment: as above
[36] = molecular target: HLA-Cw*0702 (human) (UniProt P10321); experiment: as above
[37] = molecular target: HLA-B*1401 (human) (UniProt P01889); experiment: as above
[38] = molecular target: HLA-B*1801 (human); experiment: as above
[39] = molecular target: HLA-B*4006 (human) (UniProt P01889); experiment: as above
[40] = molecular target: HLA-Cw*0202 (human); experiment: as above
[41] = molecular target: HLA-Cw*0602 (human) (UniProt P10321); experiment: as above
[42] = molecular target: HLA-B*1511 (human) (UniProt P01889); experiment: as above
[43] = molecular target: HLA-Cw*1701 (human); experiment: as above
[44] = molecular target: HLA-B*5801 (human); experiment: as above
[45] = molecular target: HLA-B*4403 (human); experiment: as above
[46] = molecular target: HLA-Cw*1402 (human) (UniProt P10321); experiment: as above

“murine monoclonal antibody (MAb) MEM-E/02” showed an MFI [1] of 517 MFI, an MFI [2] of 777 MFI and an MFI [3] of 784 MFI. For the same substance, the MFI [4] was 483 MFI, the MFI [5] was 676 MFI and the MFI [6] was 3810 MFI. For the same substance, the MFI [7] was 655 MFI, the MFI [8] was 938 MFI and the MFI [9] was 609 MFI. The MFI [10] was 262 MFI, the MFI [11] was 417 MFI and the MFI [12] was 803 MFI. It also gave an MFI [13] of 88 MFI, an MFI [14] of 99 MFI and an MFI [15] of 30 MFI. It also gave an MFI [16] of 196 MFI, an MFI [17] of 246 MFI and an MFI [18] of 48 MFI. For the same substance, the MFI [19] was 170 MFI, the MFI [20] was 201 MFI and the MFI [21] was 139 MFI. The MFI [22] was 220 MFI, the MFI [23] was 230 MFI and the MFI [24] was 80 MFI. For the same substance, the MFI [25] was 220 MFI, the MFI [26] was 75 MFI and the MFI [27] was 88 MFI. It also gave an MFI [28] of 181 MFI, an MFI [29] of 376 MFI and an MFI [30] of 256 MFI. For the same substance, the MFI [31] was 89 MFI, the MFI [32] was 191 MFI and the MFI [33] was 165 MFI. The MFI [34] was 3390 MFI, the MFI [35] was 7530 MFI and the MFI [36] was 3090 MFI. The MFI [37] was 7080 MFI, the MFI [38] was 3510 MFI and the MFI [39] was 9090 MFI. The MFI [40] was 4110 MFI, the MFI [41] was 4180 MFI and the MFI [42] was 3320 MFI. It also gave an MFI [43] of 2820 MFI, an MFI [44] of 4570 MFI and an MFI [45] of 3900 MFI. For the same substance, the MFI [46] was 3290 MFI.
